The values below come from article PMC7263589, “Integration of phage and yeast display platforms: A reliable and cost effective approach for binning of peptides as displayed on-phage” (PLoS ONE, 2020).

Bridge positions count the residues as written; N and C are the ends. Ends that are not written are not given here.

Conditions in all cases: both partners purified
The target of assay [1] is T1, IL-23 (heterodimer of the p19 and p40 subunits), protein for crystallization (human, UniProt Q9NPF7 20-189; P29460 23-328, Two N-Acetylglucosamine sugars modeled at Asn200).
T1 construct: Interleukin-23 subunit alpha (p19), human; Interleukin-12 subunit beta (p40), human; attempts were made to limit glycosylation; Multiple flexible loops are missing from the model; also called hu IL-23
T1 sequence (looked up) 1: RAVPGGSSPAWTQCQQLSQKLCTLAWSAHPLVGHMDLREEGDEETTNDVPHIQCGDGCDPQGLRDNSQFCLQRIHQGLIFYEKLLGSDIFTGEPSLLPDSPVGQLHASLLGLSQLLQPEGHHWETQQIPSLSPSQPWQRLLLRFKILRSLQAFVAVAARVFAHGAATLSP
T1 sequence (looked up) 2: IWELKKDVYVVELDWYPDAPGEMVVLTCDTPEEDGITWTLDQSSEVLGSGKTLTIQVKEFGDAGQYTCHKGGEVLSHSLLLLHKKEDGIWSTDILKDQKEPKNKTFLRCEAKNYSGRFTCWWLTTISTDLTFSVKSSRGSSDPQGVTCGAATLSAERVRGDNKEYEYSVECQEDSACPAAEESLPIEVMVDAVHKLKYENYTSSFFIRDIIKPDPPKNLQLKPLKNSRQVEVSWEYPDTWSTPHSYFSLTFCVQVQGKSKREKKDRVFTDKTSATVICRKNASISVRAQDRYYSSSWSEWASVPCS
Briefly: crystal structure; IL-23:peptide mixture, 1:1 molar ratio, ~16 mg/mL; sitting-drop vapor diffusion at 8°C; 100 mM Hepes pH 7, 17% w/v PEG 3350, 150 mM potassium nitrate; 2.7 Å, space group P212121.

Assay [2] deals with T2, IL-23-HIS (human, UniProt Q9NPF7 20-189; P29460 23-328).
T2 construct: IL-23 p19 subunit, human; IL-12/IL-23 p40 subunit, human; also called IL-23 only; IL-23 protein
T2 sequence (looked up) 1: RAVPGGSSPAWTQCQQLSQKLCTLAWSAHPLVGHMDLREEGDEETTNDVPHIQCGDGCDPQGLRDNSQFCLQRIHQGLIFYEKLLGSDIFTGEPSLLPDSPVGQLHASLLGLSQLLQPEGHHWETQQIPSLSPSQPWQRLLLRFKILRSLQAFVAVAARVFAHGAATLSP
T2 sequence (looked up) 2: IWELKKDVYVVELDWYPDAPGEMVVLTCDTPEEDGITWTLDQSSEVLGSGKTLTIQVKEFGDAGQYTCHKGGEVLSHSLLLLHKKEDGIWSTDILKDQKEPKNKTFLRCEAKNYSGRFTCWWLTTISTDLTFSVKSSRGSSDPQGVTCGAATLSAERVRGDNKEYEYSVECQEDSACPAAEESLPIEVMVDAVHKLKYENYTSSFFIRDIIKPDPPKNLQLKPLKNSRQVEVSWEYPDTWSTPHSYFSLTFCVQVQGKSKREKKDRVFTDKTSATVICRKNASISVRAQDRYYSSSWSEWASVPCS
Briefly: SPR; competition SPR, 25°C; IL-23R-Fc-AVI (<1000 RU) captured on Protein-A; 20 nM IL-23 mixed with one concentration of peptide or cold IL-23R injected 30 s; 10 mM HEPES pH 7.5, 150 mM NaCl, 0.005% P20, 1% BSA; n = 1.

For assay [3], the target named is T3, IL-23 p40 subunit (as in the crystallized IL-23) (human, UniProt P29460 23-328, Two N-Acetylglucosamine sugars modeled at Asn200).
T3 construct: Interleukin-12 subunit beta (p40), human; Chain of Wm1, written on its own for the contacts seen in the structure
T3 sequence (looked up): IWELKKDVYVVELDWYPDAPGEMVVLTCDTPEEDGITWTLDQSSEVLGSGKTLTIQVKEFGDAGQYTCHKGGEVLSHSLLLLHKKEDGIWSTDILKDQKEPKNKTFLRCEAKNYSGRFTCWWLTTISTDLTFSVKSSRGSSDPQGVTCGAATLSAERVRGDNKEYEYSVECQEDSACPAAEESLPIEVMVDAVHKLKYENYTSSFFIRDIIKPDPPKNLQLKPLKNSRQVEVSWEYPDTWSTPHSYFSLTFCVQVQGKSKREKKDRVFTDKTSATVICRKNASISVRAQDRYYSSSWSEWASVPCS
Briefly: crystal structure; IL-23:peptide mixture, 1:1 molar ratio, ~16 mg/mL; sitting-drop vapor diffusion at 8°C; 100 mM Hepes pH 7, 17% w/v PEG 3350, 150 mM potassium nitrate; 2.7 Å, space group P212121.

B1: peptide 23-652 (peptide)
peptide: DTLTKSFCYFGTWCQMYGST
modifications: disulfide 8-14
notes: selected from a cyclic peptide phage library against IL-23; residues 4-18 are ordered in the structure; also called FGT/FGL-motif containing peptide; source: synthetic peptide (CPC Scientific)
Consider B1, for which, in assay [1], the binding result is “binds”.

B2: IL-23R-Fc-AVI (Fc fusion, UniProt Q5VWK5 24-355, looked up)
chain: GITNINCSGHIWVEPATIFKMGMNISIYCQAAIKNCQPRKLHFYKNGIKERFQITRINKTTARLWYKNFLEPHASMYCTAECPKHFQETLICGKDISSGYPPDIPDEVTCVIYEYSGNMTCTWNAGKLTYIDTKYVVHVKSLETEEEQQYLTSSYINISTDSLQGGKKYLVWVQAANALGMEESKQLQIHLDDIVIPSAAVISRAETINATVPKTIIYWDSQTTIEKVSCEMRYKATTNQTWNVKEFDTNFTYVQQSEFYLEPNIKYVFQVRCQETGKRYWQPWSSLFFHKTPETVPQVTSKAFQHDTWNSGLTVASISTGHLTSDNRGDIG
notes: IL-23 receptor (IL-23R); also called IL-23R sensor
In the case of B2, the binding result in assay [2] is recorded as “binds”.

B3: IL-23 p19 subunit (as in the crystallized IL-23) (natural protein, human, UniProt Q9NPF7 20-189, looked up)
chain: RAVPGGSSPAWTQCQQLSQKLCTLAWSAHPLVGHMDLREEGDEETTNDVPHIQCGDGCDPQGLRDNSQFCLQRIHQGLIFYEKLLGSDIFTGEPSLLPDSPVGQLHASLLGLSQLLQPEGHHWETQQIPSLSPSQPWQRLLLRFKILRSLQAFVAVAARVFAHGAATLSP
notes: Interleukin-23 subunit alpha (p19), human; Chain of Wm1, written on its own for the contacts seen in the structure
With B3, in assay [3], the binding result is given as “binds”.
